Laboratory results taken from patent publication US10202610B2, “Recombinant K1-5 bacteriophages and uses thereof” (priority 2017, dated 2019).

Test system: K1-5 phage
Test: Plaquing efficiency of K1-5 phage on K1 E. coli strains with inducible CRISPR-Cas9 and sgRNAs targeting the phage genome
Type: cell-based, K1-5 bacteriophage
Conditions: K1-5 phage plated on strains expressing the sgRNAs, in the absence of homology for repair
Procedure: K1 E. coli strains were generated for cleaving and recombining at locations specified by either sgRNAs 86+89 or sgRNAs 1112+1122. Cells were maintained with 50 μg/mL kanamycin (for the CRISPR expression vector) and 10 μg/mL gentamicin (for the recombination expression vector). Cells were grown while shaking at 37° C. to OD600˜0.6 and were then subjected to various induction treatments. Cultures were either (1) not induced, (2) induced with 100 ng/mL anhydrotetracycline (aTc) to activate Cas9 expression, (3) induced with 0.2% arabinose to activate lambda red operon expression, or (4) induced with both 100 ng/mL anhydrotetracycline and 0.2% arabinose to activate expression of Cas9 and lambda red genes. Induction was carried out for 2 hours while shaking at 37° C.
K1-5 lysate was then used to infect 200 μL cultures of each bacterial strain/induction condition at 10^6, 10^4, and 10^2 PFU. This infection was given 10 minutes for the phage to adsorb before being added to 3 mL of 0.65% LB top agar. The appropriate inducer was spiked into each top agar tube to maintain induction. The top agar was then spread over an LB agar plate containing the appropriate antibiotics to maintain the CRISPR and recombination expression vectors. The agar plates were incubated in an airtight container for approximately 16 hours at 37° C. […]

Molecule	reduction in plaquing efficiency
sgRNAs 1112+1122: pair of single guide RNAs, SEQ ID NO: 18 and 19, targeting the K1-5 phage genome with Cas9 (nucleic acid, further chemistry not given here) guide 1: UAUAUUAUACCAGAGAGGCGGUUUUAGAGCUAGAAAUAGCAAGUUAAAAUAAGGCUAGUCCGUUAUCAACUUGAAAAAGUGGCACCGAGUCGGUGCUUUUUUU guide 2: GAAGUUCUAAGGAGAUAACAGUUUUAGAGCUAGAAAUAGCAAGUUAAAAUAAGGCUAGUCCGUUAUCAACUUGAAAAAGUGGCACCGAGUCGGUGCUUUUUUU	2105 fold
sgRNAs 86+89: pair of single guide RNAs, SEQ ID NO: 16 and 17, targeting the K1-5 phage genome with Cas9 (nucleic acid, further chemistry not given here) guide 1: ACUAAAUGAGGAUUAAAUCAGUUUUAGAGCUAGAAAUAGCAAGUUAAAAUAAGGCUAGUCCGUUAUCAACUUGAAAAAGUGGCACCGAGUCGGUGCUUUUUUU guide 2: UUACUCUGAUGCACUACAUGGUUUUAGAGCUAGAAAUAGCAAGUUAAAAUAAGGCUAGUCCGUUAUCAACUUGAAAAAGUGGCACCGAGUCGGUGCUUUUUUU	~1.9×10^6 fold
